Test results reported in IntAct's records for PubMed 16614222.

B1: Phospholipase D alpha 1 (Arabidopsis thaliana (Mouse-ear cress)), Q38882 (parent)
chain: MAQHLLHGTLHATIYEVDALHGGGVRQGFLGKILANVEETIGVGKGETQLYATIDLQKARVGRTRKIKNEPKNPKWYESFHIYCAHLASDIIFTVKDDNPIGATLIGRAYIPVDQVINGEEVDQWVEILDNDRNPIQGGSKIHVKLQYFHVEEDRNWNMGIKSAKFPGVPYTFFSQRQGCKVSLYQDAHIPDNFVPRIPLAGGKNYEPQRCWEDIFDAISNAKHLIYITGWSVYAEIALVRDSRRPKPGGDVTIGELLKKKASEGVRVLLLVWDDRTSVDVLKKDGLMATHDEETENFFRGSDVHCILCPRNPDDGGSIVQSLQISTMFTHHQKIVVVDSEMPSRGGSEMRRIVSFVGGIDLCDGRYDTPFHSLFRTLDTVHHDDFHQPNFTGAAITKGGPREPWHDIHSRLEGPIAWDVMYNFEQRWSKQGGKDILVKLRDLSDIIITPSPVMFQEDHDVWNVQLFRSIDGGAAAGFPESPEAAAEAGLVSGKDNIIDRSIQDAYIHAIRRAKDFIYVENQYFLGSSFAWAADGITPEDINALHLIPKELSLKIVSKIEKGEKFRVYVVVPMWPEGLPESGSVQAILDWQRRTMEMMYKDVIQALRAQGLEEDPRNYLTFFCLGNREVKKDGEYEPAEKPDPDTDYMRAQEARRFMIYVHTKMMIVDDEYIIIGSANINQRSMDGARDSEIAMGGYQPHHLSHRQPARGQIHGFRMSLWYEHLGMLDETFLDPSSLECIEKVNRISDKYWDFYSSESLEHDLPGHLLRYPIGVASEGDITELPGFEFFPDTKARILGTKSDYLPPILTT

Variants of: B1
Settings: with xlg3_arath XLG3, Q9C516

| effect of a mutation on the interaction | Variant |
| --- | --- |
| decreasing interaction | K564A |
| decreasing interaction | F565A |
| decreasing interaction | E563A |
